Measured values published in patent US9441262B2, “MASP-2, a complement fixing enzyme, and uses for it” (Helion Biotech ApS, priority 1997, dated 2016).

Test system: C4
Experiment: C4 converting activity on Western blot of MBL/MASP preparation (C4b deposition from human serum)
Type: biochemical
Conditions: blot incubated with human serum at 37° C., detection with anti-C4 antibody
Procedure: The C4 activating potentials of MASP-1 and MASP-2, and Clr and Cls, were compared. This was accomplished by separating a C1 preparation and an MBL/MASP preparation by SDS-PAGE followed by Western blotting. The blot was examined for C4 converting activity by incubation with human serum at 37° C., followed by detection of deposited C4b using anti-C4 antibodies.
C1 was purified by incubating IgG-coupled Sepharose beads with human serum at 4° C. The beads were washed and incubated at 37° C. for 30 minutes for activation of Clr and Cls. The beads were suspended in non-reducing sample buffer and, without boiling, subjected to SDS-PAGE, followed by blotting in the absence of SDS. A similar blot was made of an MBL preparation produced in the absence of enzyme inhibitors (The State Serum Institute, Copenhagen). Strips of the blots were incubated for 30 minutes at 37° C. with 1.10 (v/v) human MBL-deficient serum, depleted of Clq by fractionation on Biorex 70. The blots were developed with biotinylated F(ab)2 anti-C4 antibody followed by peroxidase-labelled streptavidin and luminescence reagent. Parallel blots were treated with a serine protease inhibitor (aminoethylbenzenesulfonyl fluoride), which was also present during incubation with serum. Other strips were directly developed with antibodies.

Molecule | C4 deposition at the position of the band
MASP-1: MBP-associated serine protease, similar in structure to Clr and Cls (protein) HTVELNNMFGQIQSPGYPDSYPSDSEVTWNITVPDGFRIKLYFMHFNLESSYLCEYDYVKVETEDQVLATFCGRETTDTEQTPGQEVVLSPGSFMSITFRSDFSNEERFTGFDAHYMAVDVDECKEREDEELSCDHYCHNYIGGYYCSCRFGYILHTDNRTCRVECSDNLFTQRTGVITSPDFPNPYPKSSECLYTIELEEGFMVNLQFEDIFDIEDHPEVPCPYDYIKIKVGPKVLGPFCGEKAPEPISTQSHSVLILFHSDNSGENRGWRLSYRAAGNEPELQPPVHGKIEPSQAKYFFKDQVLVSCDTGYKVLKDNVEMDTFQIECLKDGTWSNKIPTCKIVDCRAPGELEHGLITFSTRNNLTTYKSEIKYSCQEPYYKMLNNNTGIYTCSAQGVWMNKVLGRSLPTCLPVCGLPKFSRKLMARIFNGRPAQKGTTPWIAMLSHLNGQPFCGGSLLGSSWIVTAAHCLHQSLDPKDPTLRDSDLLSPSDFKIILGKHWRLRSDENEQHLGVKHTTLHPKYDPNTFENDVALVELLESPVLNAFVMPICLPEGPQQEGAMVIVSGWGKQFLQRFPETLMEIEIPIVDHSTCQKAYAPLKKKVTRDMICAGEKEGGKDACSGDSGGPMVTLNRERGQWYLVGTVSWGDDCGKKDRYGVYSYIHHNKDWIQRVTGVRN | no C4 deposition was observed
MASP-2: mannan-binding lectin associated serine protease-2, polypeptide of SEQ ID NO:2 (protein, listed as Homo sapiens) MRLLTLLGLLCGSVATPLGPKWPEPVFGRLASPGFPGEYANDQERRWTLTAPPGYRLRLYFTHFDLELSHLCEYDFVKLSSGAKVLATLCGQESTDTERAPGKDTFYSLGSSLDITFRSDYSNEKPFTGFEAFYAAEDIDECQVAPGEAPTCDHHCHNHLGGFYCSCRAGYVLHRNKRTCSALCSGQVFTQRSGELSSPEYPRPYPKLSSCTYSISLEEGFSVILDFVESFDVETHPETLCPYEFLKIQTDREEHGPFCGKTLPHRIETKSNTVTITFVTDESGDHTGWKIHYTSTAQPCPYPMAPPNGHVSPVQAKYILKDSFSIFCETGYELLQGHLPLKSFTAVCQKDGSWDRPMPACSIVDCGPPDDLPSGRVEYITGPGVTTYKAVIQYSCEETFYTMKVNDGKYVCEADGFWTSSKGEKSLPVCEPVCGLSARTTGGRIYGGQKAKPGDFPWQVLILGGTTAAGALLYDNWVLTAAHAVYEQKHDASALDIRMGTLKRLSPHYTQAWSEAVFIHEGYTHDAGFDNDIALIKLNNKVVINSNITPICLPRKEAESFMRTDDIGTASGWGLTQRGFLARNLMYVDIPIVDHQKCTAAYEKPPYPRGSVTANMLCAGLESGGKDSCRGDSGGALVFLDSETERWFVGGIVSWGSMNCGEAGQYGVYTKVINYIPWIENIISDF | C4 was deposited
